One may read the Kd as the concentration at which binding is half-saturated.

The target of the assay is CK2β 1-193 (Homo sapiens, UniProt P67870). Description: microscale thermophoresis. A general note: MST reads how a fluorescent partner responds to local heating, with and without ligand.
CK2β 1-193, sequence (P67870 1-193): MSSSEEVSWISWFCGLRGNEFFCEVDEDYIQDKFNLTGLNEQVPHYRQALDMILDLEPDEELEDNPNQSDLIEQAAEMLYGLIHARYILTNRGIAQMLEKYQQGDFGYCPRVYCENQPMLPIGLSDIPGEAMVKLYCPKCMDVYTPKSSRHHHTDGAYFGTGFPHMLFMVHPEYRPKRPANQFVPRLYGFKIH

B1: CK2α 1-335 (protein)
chain: MSGPVPSRARVYTDVNTHRPREYWDYESHVVEWGNQDDYQLVRKLGRGKYSEVFEAINITNNEKVVVKILKPVKKKKIKREIKILENLRGGPNIITLADIVKDPVSRTPALVFEHVNNTDFKQLYQTLTDYDIRFYMYEILKALDYCHSMGIMHRDVKPHNVMIDHEHRKLRLIDWGLAEFYHPGQEYNVRVASRYFKGPELLVDYQMYDYSLDMWSLGCMLASMIFRKEPFFHGHDNYDQLVRIAKVLGTEDLYDYIDKYNIELDPRFNDILGRHSRKRWERFVHSENQHLVSPEALDFLDKLLRYDHQSRLTAREAMEHPYFYTVVKDQARMG
modifications: CK2β fluorescently labelled (RED-NHS)
Take B1: the dissociation constant (Kd) came out at 12 nM.

The values above are taken from article PMC7418559 (2020).
